Source: patent US20260063625A1, “COMPOSITIONS FOR AND METHODS OF DETECTING FOOD TOXINS” (priority 2022, published 2026)

Assay: Fluorescence polarization (FP) binding to fluorescein labeled STX
Settings: […]G = RT ln (KdSxph mutant/KdSxph); T = 298K
Procedure: […]; Measurements were performed at 25° C. on a Synergy H1 microplate reader (BioTek) using the polarization filter setting (excitation 485 nm, emission 528 nm). […]. The dissociation constants were calculated using GraphPad Prism by fitting fluorescence millipolarization (mP=P·10^−3, where P is polarization) as a function of Sxph concentration using the equation: P={(Pbound−Pfree) [Sxph]/(Kd+[Sxph])}+Pfree, where P is the polarization measured at a given Sxph concentration, Pfree is the […], and Pbound is the maximum polarization of Sxph bound by F-STX (Rossi and Taylor, Hansen et al.).

Molecule	[…]G (kcal mol^−1) relative to wild-type RcSxph [kcal/mol]
E540Q: RcSxph mutant E540Q (protein) MAPTFQTALFFTIISLSFAAPNAKQVRWCAISDLEQKKCNDLVGSCNVPDITLVCVLRSSTEDCMTAIKDGQADAMFLDSGEVYEASKDPYNLKPIIAEPYSSNRDLQKCLKERQQALAKKMIGHYIPQCDEKGNYQPQQCHGSTGHCWCVNAMGEKISGTNTPPGQTRATCERHELPKCLKERQVALGGDEKVLGRFVPQCDEKGNYEPQQFHGSTGYSWCVNAIGEEIAGTKTPPGKIPATCQKHDLVTTCHYAVAMVKKSSAFQFNQLKGKRSCHSGVSKTDGWKALVTVLVEKKLLSWDGPAKESIQRAMSKFFSVSCIPGATQTNLCKQCKGEEGKNCKNSHDEPYYGNYGAFRCLKEDMGDVAFLRSTALSDEHSEVYELLCPDNTRKPLNKYKECNLGTVPAGTVVTRKISDKTEDINNFLMEAQKRQCKLFSSAHGKDLMFDDSTLQLALLSSEVDAFLYLGVKLFHAMKALTGDAHLPSKNKVRWCTINKLEKMKCDDWSAVSGGAIACTEASCPKGCVKQILKGEADAVKLEVQYMYEALMCGLLPAVQEYHNKDDFGPCKTPGSPYTDFGTLRAVALVKKSNKDINWNNIKGKKSCHTGVGDIAGWVIPVSLIRRQNDNSDIDSFFGESCAPGSDTKSNLCKLCIGDPKNSAANTKCSLSDKEAYYGNQGAFRCLVEKGDVAFVPHTVVFENTDGKNPAVWAKNLKSEDFELLCLDGSRAPVSNYKSCKLSGIPPPAIVTREESISDVVRIVANQQSLYGRKGFEKDMFQLFSSNKGNNLLFNDNTQCLITFDRQPKDIMEDYFGKPYYTTVYGASRSAMSSELISACTIKHC	4.30
D794N: RcSxph mutant D794N (protein) MAPTFQTALFFTIISLSFAAPNAKQVRWCAISDLEQKKCNDLVGSCNVPDITLVCVLRSSTEDCMTAIKDGQADAMFLDSGEVYEASKDPYNLKPIIAEPYSSNRDLQKCLKERQQALAKKMIGHYIPQCDEKGNYQPQQCHGSTGHCWCVNAMGEKISGTNTPPGQTRATCERHELPKCLKERQVALGGDEKVLGRFVPQCDEKGNYEPQQFHGSTGYSWCVNAIGEEIAGTKTPPGKIPATCQKHDLVTTCHYAVAMVKKSSAFQFNQLKGKRSCHSGVSKTDGWKALVTVLVEKKLLSWDGPAKESIQRAMSKFFSVSCIPGATQTNLCKQCKGEEGKNCKNSHDEPYYGNYGAFRCLKEDMGDVAFLRSTALSDEHSEVYELLCPDNTRKPLNKYKECNLGTVPAGTVVTRKISDKTEDINNFLMEAQKRQCKLFSSAHGKDLMFDDSTLQLALLSSEVDAFLYLGVKLFHAMKALTGDAHLPSKNKVRWCTINKLEKMKCDDWSAVSGGAIACTEASCPKGCVKQILKGEADAVKLEVQYMYEALMCGLLPAVEEYHNKDDFGPCKTPGSPYTDFGTLRAVALVKKSNKDINWNNIKGKKSCHTGVGDIAGWVIPVSLIRRQNDNSDIDSFFGESCAPGSDTKSNLCKLCIGDPKNSAANTKCSLSDKEAYYGNQGAFRCLVEKGDVAFVPHTVVFENTDGKNPAVWAKNLKSEDFELLCLDGSRAPVSNYKSCKLSGIPPPAIVTREESISDVVRIVANQQSLYGRKGFEKDMFQLFSSNKGNNLLFNDNTQCLITFDRQPKDIMENYFGKPYYTTVYGASRSAMSSELISACTIKHC	3.60
F784Y: RcSxph mutant F784Y (protein) MAPTFQTALFFTIISLSFAAPNAKQVRWCAISDLEQKKCNDLVGSCNVPDITLVCVLRSSTEDCMTAIKDGQADAMFLDSGEVYEASKDPYNLKPIIAEPYSSNRDLQKCLKERQQALAKKMIGHYIPQCDEKGNYQPQQCHGSTGHCWCVNAMGEKISGTNTPPGQTRATCERHELPKCLKERQVALGGDEKVLGRFVPQCDEKGNYEPQQFHGSTGYSWCVNAIGEEIAGTKTPPGKIPATCQKHDLVTTCHYAVAMVKKSSAFQFNQLKGKRSCHSGVSKTDGWKALVTVLVEKKLLSWDGPAKESIQRAMSKFFSVSCIPGATQTNLCKQCKGEEGKNCKNSHDEPYYGNYGAFRCLKEDMGDVAFLRSTALSDEHSEVYELLCPDNTRKPLNKYKECNLGTVPAGTVVTRKISDKTEDINNFLMEAQKRQCKLFSSAHGKDLMFDDSTLQLALLSSEVDAFLYLGVKLFHAMKALTGDAHLPSKNKVRWCTINKLEKMKCDDWSAVSGGAIACTEASCPKGCVKQILKGEADAVKLEVQYMYEALMCGLLPAVEEYHNKDDFGPCKTPGSPYTDFGTLRAVALVKKSNKDINWNNIKGKKSCHTGVGDIAGWVIPVSLIRRQNDNSDIDSFFGESCAPGSDTKSNLCKLCIGDPKNSAANTKCSLSDKEAYYGNQGAFRCLVEKGDVAFVPHTVVFENTDGKNPAVWAKNLKSEDFELLCLDGSRAPVSNYKSCKLSGIPPPAIVTREESISDVVRIVANQQSLYGRKGFEKDMFQLFSSNKGNNLLFNDNTQCLITYDRQPKDIMEDYFGKPYYTTVYGASRSAMSSELISACTIKHC	0.37
F784L: RcSxph mutant F784L (protein) MAPTFQTALFFTIISLSFAAPNAKQVRWCAISDLEQKKCNDLVGSCNVPDITLVCVLRSSTEDCMTAIKDGQADAMFLDSGEVYEASKDPYNLKPIIAEPYSSNRDLQKCLKERQQALAKKMIGHYIPQCDEKGNYQPQQCHGSTGHCWCVNAMGEKISGTNTPPGQTRATCERHELPKCLKERQVALGGDEKVLGRFVPQCDEKGNYEPQQFHGSTGYSWCVNAIGEEIAGTKTPPGKIPATCQKHDLVTTCHYAVAMVKKSSAFQFNQLKGKRSCHSGVSKTDGWKALVTVLVEKKLLSWDGPAKESIQRAMSKFFSVSCIPGATQTNLCKQCKGEEGKNCKNSHDEPYYGNYGAFRCLKEDMGDVAFLRSTALSDEHSEVYELLCPDNTRKPLNKYKECNLGTVPAGTVVTRKISDKTEDINNFLMEAQKRQCKLFSSAHGKDLMFDDSTLQLALLSSEVDAFLYLGVKLFHAMKALTGDAHLPSKNKVRWCTINKLEKMKCDDWSAVSGGAIACTEASCPKGCVKQILKGEADAVKLEVQYMYEALMCGLLPAVEEYHNKDDFGPCKTPGSPYTDFGTLRAVALVKKSNKDINWNNIKGKKSCHTGVGDIAGWVIPVSLIRRQNDNSDIDSFFGESCAPGSDTKSNLCKLCIGDPKNSAANTKCSLSDKEAYYGNQGAFRCLVEKGDVAFVPHTVVFENTDGKNPAVWAKNLKSEDFELLCLDGSRAPVSNYKSCKLSGIPPPAIVTREESISDVVRIVANQQSLYGRKGFEKDMFQLFSSNKGNNLLFNDNTQCLITLDRQPKDIMEDYFGKPYYTTVYGASRSAMSSELISACTIKHC	1.11
F784S: RcSxph mutant F784S (protein) MAPTFQTALFFTIISLSFAAPNAKQVRWCAISDLEQKKCNDLVGSCNVPDITLVCVLRSSTEDCMTAIKDGQADAMFLDSGEVYEASKDPYNLKPIIAEPYSSNRDLQKCLKERQQALAKKMIGHYIPQCDEKGNYQPQQCHGSTGHCWCVNAMGEKISGTNTPPGQTRATCERHELPKCLKERQVALGGDEKVLGRFVPQCDEKGNYEPQQFHGSTGYSWCVNAIGEEIAGTKTPPGKIPATCQKHDLVTTCHYAVAMVKKSSAFQFNQLKGKRSCHSGVSKTDGWKALVTVLVEKKLLSWDGPAKESIQRAMSKFFSVSCIPGATQTNLCKQCKGEEGKNCKNSHDEPYYGNYGAFRCLKEDMGDVAFLRSTALSDEHSEVYELLCPDNTRKPLNKYKECNLGTVPAGTVVTRKISDKTEDINNFLMEAQKRQCKLFSSAHGKDLMFDDSTLQLALLSSEVDAFLYLGVKLFHAMKALTGDAHLPSKNKVRWCTINKLEKMKCDDWSAVSGGAIACTEASCPKGCVKQILKGEADAVKLEVQYMYEALMCGLLPAVEEYHNKDDFGPCKTPGSPYTDFGTLRAVALVKKSNKDINWNNIKGKKSCHTGVGDIAGWVIPVSLIRRQNDNSDIDSFFGESCAPGSDTKSNLCKLCIGDPKNSAANTKCSLSDKEAYYGNQGAFRCLVEKGDVAFVPHTVVFENTDGKNPAVWAKNLKSEDFELLCLDGSRAPVSNYKSCKLSGIPPPAIVTREESISDVVRIVANQQSLYGRKGFEKDMFQLFSSNKGNNLLFNDNTQCLITSDRQPKDIMEDYFGKPYYTTVYGASRSAMSSELISACTIKHC	3.60
F784C: RcSxph mutant F784C (protein) MAPTFQTALFFTIISLSFAAPNAKQVRWCAISDLEQKKCNDLVGSCNVPDITLVCVLRSSTEDCMTAIKDGQADAMFLDSGEVYEASKDPYNLKPIIAEPYSSNRDLQKCLKERQQALAKKMIGHYIPQCDEKGNYQPQQCHGSTGHCWCVNAMGEKISGTNTPPGQTRATCERHELPKCLKERQVALGGDEKVLGRFVPQCDEKGNYEPQQFHGSTGYSWCVNAIGEEIAGTKTPPGKIPATCQKHDLVTTCHYAVAMVKKSSAFQFNQLKGKRSCHSGVSKTDGWKALVTVLVEKKLLSWDGPAKESIQRAMSKFFSVSCIPGATQTNLCKQCKGEEGKNCKNSHDEPYYGNYGAFRCLKEDMGDVAFLRSTALSDEHSEVYELLCPDNTRKPLNKYKECNLGTVPAGTVVTRKISDKTEDINNFLMEAQKRQCKLFSSAHGKDLMFDDSTLQLALLSSEVDAFLYLGVKLFHAMKALTGDAHLPSKNKVRWCTINKLEKMKCDDWSAVSGGAIACTEASCPKGCVKQILKGEADAVKLEVQYMYEALMCGLLPAVEEYHNKDDFGPCKTPGSPYTDFGTLRAVALVKKSNKDINWNNIKGKKSCHTGVGDIAGWVIPVSLIRRQNDNSDIDSFFGESCAPGSDTKSNLCKLCIGDPKNSAANTKCSLSDKEAYYGNQGAFRCLVEKGDVAFVPHTVVFENTDGKNPAVWAKNLKSEDFELLCLDGSRAPVSNYKSCKLSGIPPPAIVTREESISDVVRIVANQQSLYGRKGFEKDMFQLFSSNKGNNLLFNDNTQCLITCDRQPKDIMEDYFGKPYYTTVYGASRSAMSSELISACTIKHC	3.15
